Among the data in article PMC4753422 are Kd values, retold here.

The target in this experiment is papain (UniProt P00784). In words: enzyme inhibition kinetics (papain proteolysis progress curves); anti-papain activity from papain proteolysis progress curves with the fluorigenic substrate Z-Phe-Arg-methylcoumarin; apparent (said of the Cysta-tag's constant).
UniProt P00784, sequence (P00784 134-345): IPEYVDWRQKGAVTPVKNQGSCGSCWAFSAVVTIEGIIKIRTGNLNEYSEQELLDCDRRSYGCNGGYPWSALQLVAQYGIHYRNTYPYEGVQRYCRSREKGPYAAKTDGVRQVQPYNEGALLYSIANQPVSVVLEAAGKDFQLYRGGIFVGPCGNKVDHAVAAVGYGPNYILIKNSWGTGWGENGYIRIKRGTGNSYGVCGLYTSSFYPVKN

Consider “tomato multicystatin domain SlCYS8 (domain or fragment)”, for which the Kd was 43 nM.

As for “Cysta-tag (Ala-62-(His)6-Gly-63 variant of SlCYS8) (domain or fragment)”, the Kd amounted to 42 nM.
